# According to FireProtDB (doi:10.1021/bi00212a026):
# Conditions: Bacillus amyloliquefaciens; pH 6.3; 25 °C; Urea; Fluorescence; MES 50 mM; NaCl 0.15 M; reversible: yes; whole UniProt chain shown
protein,measurement,value
"Ribonuclease wild type, P00648 (protein) MMKMEGIALKKRLSWISVCLLVLVSAAGMLFSTAAKTETSSHKAHTEAQVINTFDGVADYLQTYHKLPDNYITKSEAQALGWVASKGNLADVAPGKSIGGDIFSNREGKLPGKSGRTWREADINYTSGFRNSDRILYSSDWLIYKTTDHYQTFTKIR",denaturant m value,1.92 kcal/mol/M
same,denaturant midpoint (higher = more stable),4.58 M
same,unfolding free energy,8.79 kcal/mol
